Experimental data from the supplement of paper PMC9170038.

System: MS2 coat protein
Assay: apparent KD of MS2 coat protein; designed switch direction (-1 OFF switch, 1 ON switch): -1; higher = weaker reporter binding
Method in brief: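 Designed RNA switches with common flanks were made on Illumina chips by stalled E. coli RNA polymerase. Titration with SNAP-549-labelled MS2 coat protein doubled from 0.7 or 1.5 nM up to 3 µM. Apparent KD is each design's median over clusters after curve-fitting normalised fluorescence.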

[1] = Eterna round: R95, input ligand: microRNA oligo, concentration not stated
[2] = input ligand: microRNA oligo, concentration not stated
[3] = Eterna round: R95, input ligand: FMN 200 uM
[4] = Eterna round: R95, input ligand: none

Sequence | apparent KD of MS2 coat protein (input ligand: FMN 200 uM) | apparent KD of MS2 coat protein (input ligand: none) | apparent KD of MS2 coat protein [1] | apparent KD of MS2 coat protein [2] | apparent KD of MS2 coat protein [3] | apparent KD of MS2 coat protein [4]
GUAUUUUGAGGAUAUACAUGAGGAUCACCCAUGUGUCGUAGCGCCAGCCUUAAUACGUGUAGAAGGCAGAAUGU [Eternabot (L1) Solution 75] (Eterna round: R97, puzzle: Exclusion 3) | 20 nM | 34 nM | – | – | – | –
UGGUGGAAGCAGGAUAUGCUUGUUUUAUUGAUUGCAGAAGGGCUAACAUGAGGAUCACCCAUGUAAGAGGUGUU [JR_E6_Sub055] (puzzle: Exclusion 6) | – | – | 303 nM | – | – | –
ACAUGAGGAUCACCCAUGUGAAAACAAUGGCUGACUUUGAGAUAGGAUAUUGGUGCAUAUCAAACCAAGAAGGGUCAUUACUGG [Deportation 92 - Jieux - Exclusion NG 3] (Eterna round: R96, puzzle: Exclusion NG 3) | 37.5 nM | 48.2 nM | – | 32.8 nM | – | –
UAAAAGGUAGGAUAUACGAAAAAAAAGGGUAGAAAAAAAACACAUGAGGAUCACCCAUGUAGAAGGACCAAAAA [salish99_ex2_r3_049] (puzzle: Exclusion 2) | – | – | 38.4 nM | – | 137 nM | 38 nM
AUAUAGAUAGUCAGGAUAUACUAGUGAUAACAGUAGUAGAAGGGACAUGAGGAUCACCCAUGUAGAUACUGCAC [Brourd's EX4 #2] (Eterna round: R97, puzzle: Brourd's mod of Exclusion 4) | 22.2 nM | 21.2 nM | – | – | – | –
ACGAUGACCGAAAGAUGUCAAAAGACAUGAGGAUCACCCAUGUAGGAUAUGGCUACGAAAAGUAGUCAGAAGGACAUGUCAUCA [Omei Exc(NG) 3 A] (Eterna round: R96, puzzle: Exclusion NG 3) | 15.1 nM | 14.8 nM | – | 12.3 nM | – | –
GGGCCGGCCGGAGGAUAUGCGGCUUGGUUGGUCGGUGGGCCGGCCGGGACAUGAGGAUCACCCAUGUAGAAGGCUGGUUGGUUC [less GC, MS2 in another position, A 14%] (Eterna round: R96, puzzle: Exclusion NG 2) | 58.2 nM | 60.7 nM | – | 42.8 nM | – | –
GAGUUAACAUGAGGAAUAUACAUGAGGAUCACCCAUGUUAACAAAUUUUUUGCUCGUCUUAUAACAACAAUUAACUC [Alarm 4 - Jieux - Sensor, turn-off variant 1] (Eterna round: R97, puzzle: Sensor, turn-off variant 1) | 434 nM | 206 nM | – | – | – | –
UUUUUAGAUGAAGGAUAUACUUAACAUGAGGAUCACCCAUGUGGUGUUGUGAGUGAGUGAGUUUAGUAGAAGGUCAAUGAUUUU [JMF's solution 66] (Eterna round: R96, puzzle: Exclusion NG 2) | 937 nM | 377 nM | – | 246 nM | – | –
UUCUGGACAGGAUAUGUACUUGAGCACUUGAGGAUCACCCAAGUCUUCAAGUACUCAGGCACAGAAGGGUUAAUUU [jl-ex5.4.66 ViennaUCT mod] (Eterna round: R97, puzzle: Exclusion 5) | 58.9 nM | 25.4 nM | – | – | – | –
AGUAACUAUCACGAAAGUGAUAGUUACAGCAAGUGAUAAACAUGAGGAUCACCCAUGUCCUCAUUUGCUCGUCUUAU [Sensor 3 - 12] (puzzle: Sensor v3, turn-off variant 2) | – | – | 739 nM | – | 15.1 nM | 12.7 nM
AAUAAUCGAGGAUAUACUAAAAUAUGAAUAAAAUAAAUAAAACAUGAGGAUCACCCAUGUAGAAGGCGAAAUAA [JMF's Not so obvious solution 1] (puzzle: Exclusion 2) | – | – | 24.1 nM | – | 20.8 nM | 29.5 nM
GCUGCGCGAGGAUAUGCGGUUCGCGCUGUGGCCCGUGGCGGACAUGAGGAUCACCCAUGUAGAAGGCGUGCGGG [Apr-15 SS2-58] (puzzle: Exclusion 2) | – | – | 10.3 nM | – | – | –
UAUAUAUAGUAAGGAUAUGUAAUUAUCUUAUAAACAGAAGGUACUGACAUGAGGAUCACCCAUGUUUUAGUGUGGGCAUGUAGA [JMF's solution 39] (Eterna round: R96, puzzle: Exclusion NG 1) | – | – | – | 49.8 nM | – | –
UACUGGACAGGAUAUGUUCUUGAGCACUUGAGGAUCACCCAAGUCAUCAAGAACUCAGGCACAGAAGGGUUUAUGG [salish99_ex5_r4_006] (Eterna round: R97, puzzle: Exclusion 5) | 25.5 nM | 14.8 nM | – | – | – | –
GGUUGGCGAGGAUAUACAUGAGGAUCACCCAUGUGGUCCUGUGGCUGAUCAAGCCUAUGUAGAAGGCGCAAAUC [salish99_ex3_r4_012] (Eterna round: R97, puzzle: Exclusion 3) | 137 nM | 257 nM | – | – | – | –
GCCAGAGCAGGAUAUUGAUAAAUUCACAUGAGGAUCACCCAUGUCCAGCGAAAGCUGGAACGAGAAGGGCUCUGGC [Mat - Exclusion 5 - Eli mod - D87] (puzzle: Exclusion 5) | – | – | 13.3 nM | – | 11.7 nM | 13.7 nM

Sequence | apparent KD of MS2 coat protein (input ligand: FMN 200 uM) | apparent KD of MS2 coat protein (input ligand: none) | apparent KD of MS2 coat protein [1] | apparent KD of MS2 coat protein [2] | apparent KD of MS2 coat protein [3] | apparent KD of MS2 coat protein [4]
CUUUUGUGAGGAUAUCAGUAGUAAAAAAAUAAAAUUACUACUUAGAAGGCACAUGAGGAUCACCCAUGUUCCUC [salish99_ex4_r3_030] (puzzle: Exclusion 4) | – | – | 25.4 nM | – | – | –
AGUAACUAUCACGAAAGUGAUAGUUACAAACAAGUGAAAACAUGAGGAUCACCCAUGUCCUCAUUUGCUCGUCUUAU [Sensor 3 - 7] (puzzle: Sensor v3, turn-off variant 2) | – | – | 884 nM | – | 182 nM | 329 nM
AUAAUGUAAGGAUAUCAGUCGUAAUUUAAUUUAAUAUCGACUGAGAAGGUACAUGAGGAUCACCCAUGUGGUCA [E4/9-B2] (Eterna round: R97, puzzle: Exclusion 4) | 148 nM | 574 nM | – | – | – | –
AGCUGUGGCCGAGGAUAUCACGAACCAUGGAAAACCAUGGAAAUUCUACAUGAGGAUCACCCAUGUGAGAAGGCGGUCUCAGCA [Eli eng2 - 023] (Eterna round: R96, puzzle: Exclusion NG 2) | – | – | – | 12.5 nM | – | –
AAUAACAGAGGAUAUACUAUUUUAUGUAUUUAUUAUUUUAAACAUGAGGAUCACCCAUGUAGAAGGCUGAAUAA [JMF 11] (puzzle: Exclusion 2) | – | – | 19.8 nM | – | – | –
AAAUCGGUAGAGGAUAUUGUACAGGAAACGGUGCGAGAAGGCUACACAUGAGGAUCACCCAUGUUAAAUAGCGA [EX6 #55] (Eterna round: R97, puzzle: Exclusion 6) | 17 nM | 15.8 nM | – | – | – | –
CUGAGCAGACGGAGAUCCAACAUGAGGAUCACCCAUGUCUCAAAAGCUUUUUGCUCAUCUUAUCCUCCUCUGUUCUC [Edcesobi] (puzzle: Sensor v3, turn-off variant 1) | – | – | 336 nM | – | 20.5 nM | 17.9 nM
ACAUGUCAUCGAGGAUAUUGGACACAUGAGGAUCACCCAUGUACCCGGAGGCUUUACUAUGAGUUCGAGAAGGCGAUGUACAUG [Ex NG2 #73] (Eterna round: R96, puzzle: Exclusion NG 2) | 83.7 nM | 54.6 nM | – | 42.4 nM | – | –
UUUUGGCAAGCGAGAUCCUACAUGAGGAUCACCCAUGUUGACCAUGGUUUCCAUGGUCAUUUUGCUCGUCUUGUGUG [jl TITIN mod 2] (Eterna round: R97, puzzle: Sensor, turn-off variant 1) | 31.8 nM | 32.3 nM | – | – | – | –
AAUUAGUGAGGAUAUUUGAACAGUGGCAGUAGCCAGUGCAUGAAGAAGGCACAUGAGGAUCACCCAUGUUAUAA [EX4 #58] (Eterna round: R97, puzzle: Exclusion 4) | 70.5 nM | 39.8 nM | – | – | – | –
AAAAGAGUAGGAUAUCUGACGCGAAACAUGAGGAUCACCCAUGUAGGGCGGUCCUGCUUAAGAGAAGGGCUCUAAU [Arorxebile] (puzzle: Exclusion 5) | – | – | 119 nM | – | 155 nM | 164 nM
GGACACUGAGGAUAUACAAUUCAGGUCCUCCUGUAGAGUAUACAUGAGGAUCACCCAUGUAGAAGGCAGACCAA [Aronberiat] (Eterna round: R97, puzzle: Exclusion 2) | 344 nM | 44.9 nM | – | – | – | –
UAGGAGUCAGGAUAUGCGAGAGAUUGAAGUAAGGGAUGAGAGCAGAAGGGACAUGAGGAUCACCCAUGUAAGGA [JR_Exclu4_Sub092] (puzzle: Exclusion 4) | – | – | 43.1 nM | – | 47.7 nM | 52 nM
CAGACCCGCCUUGGUCACAUGAGGAUCACCCAUGUUUAGGUCUAGGAUAUGGCCGUCGAGGACGGCCAGAAGGAGAAUAUCAUG [Eternabot solution 34] (Eterna round: R96, puzzle: Exclusion NG 3) | 102 nM | 43 nM | – | 32.1 nM | – | –
GAUUUACAUGAGGAUCACCCAUGUGAGGAUAUAUUGUUAUUUUUAAUAUUUUUUAGUGGUAGAAGGCGCGUGAU [JR_Exc1_Sub016] (Eterna round: R97, puzzle: Exclusion 1) | 24.2 nM | 26.9 nM | – | – | – | –
ACAUGUAAUGUAGGAUAUUUUACACAUGAGGAUCACCCAUGUGACCGGAGGCUUUACUAUGAGUAAAAGAAGGGUAUGUACAUG [Ex NG2 #61] (Eterna round: R96, puzzle: Exclusion NG 2) | 68.5 nM | 45.8 nM | – | 33.1 nM | – | –
GUACUGAAGCUUUGCUUUAGUCGUACAUGAGGAUCACCCAUGUAGGAUAUGGUAGGCAUAGCUUACUAGAAGGAUAGAGUGAUC [Mat - Exclusion NG 3 - Mod of JL - D64] (Eterna round: R96, puzzle: Exclusion NG 3) | 112 nM | 81.3 nM | – | 86 nM | – | –
